# T1: MERS-CoV S1-NTD (residues 1-351) with 8xHis-tag and Twin-Strep-tag (MERS-CoV (deposit 6PXH of this paper))
# T1 chain: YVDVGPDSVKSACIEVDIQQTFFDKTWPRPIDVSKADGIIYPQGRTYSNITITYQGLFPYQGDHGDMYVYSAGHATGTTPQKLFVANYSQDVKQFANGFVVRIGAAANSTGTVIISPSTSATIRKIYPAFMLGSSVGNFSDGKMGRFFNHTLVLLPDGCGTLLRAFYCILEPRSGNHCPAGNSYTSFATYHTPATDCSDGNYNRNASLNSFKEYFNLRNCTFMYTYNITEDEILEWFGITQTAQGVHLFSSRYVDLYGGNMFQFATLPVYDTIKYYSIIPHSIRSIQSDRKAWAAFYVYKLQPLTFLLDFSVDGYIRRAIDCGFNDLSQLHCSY
# Target: T1, MERS-CoV S1-NTD (residues 1-351) with …
# Assay: SPR
binder,measurement,value
"G2 Fab (Fab, V domains shown) VH: QVQLQQSGGELVKPGASVKLSCKTSGFTFSSSYISWLKQKPGQSLEWIAWIYAGTGGTEYNQKFTGKAQVTVDTSSSTAYMQFSSLTTEDSAIYYCARGGSSFAMDYWGQGTSVTVSS VL: not shown",Kd,0.028 µM

# Reference: paper PMC6935267 (Cell Reports, 2019)
